Data taken from PMC7313415 (Journal of immunology (Baltimore, Md. : 1950), 2020).

What was measured:
Assay in all cases: SPR
[1] = molecular target: Biotin-labeled SUMO-fusion mouse TRIM14 (residues 247-440) (mouse) (UniProt Q8BVW3)
[2] = molecular target: human cGAS (residues 157-522) (human, UniProt Q8N884 157-522)
[3] = molecular target: T1, full-length human TBK1 (human, UniProt Q9UHD2 1-729)
T1 sequence (looked up): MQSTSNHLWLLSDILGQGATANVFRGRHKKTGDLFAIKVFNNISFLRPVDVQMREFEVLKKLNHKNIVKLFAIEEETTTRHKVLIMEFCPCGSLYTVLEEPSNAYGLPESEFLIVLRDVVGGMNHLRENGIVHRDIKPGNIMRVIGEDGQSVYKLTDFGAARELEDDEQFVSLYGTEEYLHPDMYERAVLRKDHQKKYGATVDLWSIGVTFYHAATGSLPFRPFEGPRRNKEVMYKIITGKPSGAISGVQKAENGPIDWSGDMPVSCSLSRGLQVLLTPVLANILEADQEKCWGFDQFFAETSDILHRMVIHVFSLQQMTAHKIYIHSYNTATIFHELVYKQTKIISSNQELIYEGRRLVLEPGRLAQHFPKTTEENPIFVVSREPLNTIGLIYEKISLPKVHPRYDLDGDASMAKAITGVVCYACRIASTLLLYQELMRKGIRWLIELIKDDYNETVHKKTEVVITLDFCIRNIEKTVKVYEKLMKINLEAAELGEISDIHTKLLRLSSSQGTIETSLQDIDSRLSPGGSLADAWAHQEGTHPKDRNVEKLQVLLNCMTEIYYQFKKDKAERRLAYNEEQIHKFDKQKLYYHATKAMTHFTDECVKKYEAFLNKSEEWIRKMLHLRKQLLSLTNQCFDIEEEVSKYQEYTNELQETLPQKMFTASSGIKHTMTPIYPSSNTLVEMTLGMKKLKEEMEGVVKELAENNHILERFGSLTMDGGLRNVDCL

human cGAS (residues 157-522), sequence (Q8N884 157-522): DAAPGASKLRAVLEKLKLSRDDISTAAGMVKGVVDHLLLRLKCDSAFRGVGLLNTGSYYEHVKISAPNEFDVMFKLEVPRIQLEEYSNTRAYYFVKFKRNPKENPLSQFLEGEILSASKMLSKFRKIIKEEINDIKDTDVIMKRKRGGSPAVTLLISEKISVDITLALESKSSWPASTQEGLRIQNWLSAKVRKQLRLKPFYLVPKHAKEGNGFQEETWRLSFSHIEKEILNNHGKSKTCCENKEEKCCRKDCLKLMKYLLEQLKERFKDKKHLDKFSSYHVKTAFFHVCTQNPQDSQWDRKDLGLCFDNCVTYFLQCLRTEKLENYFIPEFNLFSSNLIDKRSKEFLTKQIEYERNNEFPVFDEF

## human TBK1 (residues 1 to 657) (from UniProt Q9UHD2 1-657) (domain or fragment)
[1]
  Kd: 42.6 µM

## mouse TBK1 (residues 1 to 657) (from UniProt Q9WUN2 1-657) (domain or fragment)
[1]
  Kd: 24.3 µM

B1: Biotin-labeled SUMO-fusion mouse TRIM14 (residues 247-440) (domain or fragment, UniProt Q8BVW3 247-440, looked up)
chain: ALLKTSPSPERALFLKYARTPTLDPDTMHARLRLSPDGLTVRCSLLGRLGPRPAPRFDALRQVLGRDGFAAGRHYWEVDVQEAGVGWWVGAAYPSLRRRGASAAARLGCNRESWCVKRYDLEYWAFHDGQRSRLRPRRDPHRLGVFLDYEAGILAFYDVAGGMSHLHTFHAAFQEPLYPALRLWEGPISIPRLP
modifications: biotin (Avi tag, labelled by BirA)
[2]
  Kd: 25.8 µM
[3]
  Kd: 11 µM
